Test results published in paper PMC12951562 (2026).
Values belong to the binder of their own block, whether it stands above or below them. Non-standard residues stand in square brackets, D forms with d. No end group written: not given here. pY = N[C@@H](Cc1ccc(OP(=O)(O)O)cc1)C(=O)O

What was measured:
Ac-pYEEIE-NH2 = target: T1, Ac-pYEEIE-NH2 (SMILES CC[C@H](C)[C@H](NC(=O)[C@H](CCC(=O)O)NC(=O)[C@H](CCC(=O)O)NC(=O)[C@H](Cc1ccc(OP(=O)(O)O)cc1)NC(C)=O)C(=O)N[C@@H](CCC(=O)O)C(N)=O); assay: competition binding assay (SH2scan, qPCR)
T1 chain: Ac-[pY]EEIE-NH2

caffeic acid-pYEEIE = target: T2, caffeic acid-pYEEIE; assay: competition binding assay (SH2scan, qPCR)
T2 chain: {caffeic acid}-[pY]EEIE

B1: PIK3R3 C-terminal SH2 (protein)
chain: WFVEDINRVQAEDLLYGKPDGAFLIRESSKKGCYACSVVADGEVKHCVIYSTARGYGFAEPYNLYSSLKELVLHYQQTSLVQHNDSLNVRLAYPV
- Kd (Ac-pYEEIE-NH2): 14.9 µM

B2: FES SH2 (protein)
chain: EQLWYHGAIPRAEVAELLVHSGDFLVRESQGKQEYVLSVLWDGLPRHFIIQSLDNLYRLEGEGFPSIPLLIDHLLSTQQPLTKKSGVVLHRAVPKD
- Kd (Ac-pYEEIE-NH2): 4.2 µM

- Kd (caffeic acid-pYEEIE): 0.00053 µM
B3: FYN SH2 (protein)
chain: AEEWYFGKLGRKDAERQLLSFGNPRGTFLIRESETTKGAYSLSIRDWDDMKGDHVKHYKIRKLDNGGYYITTRAQFETLQQLVQHYSERAAGLCCRLVVPCHKG
- Kd (Ac-pYEEIE-NH2): 3.3 µM

B4: YES SH2 (protein)
chain: AEEWYFGKMGRKDAERLLLNPGNQRGIFLVRESETTKGAYSLSIRDWDEIRGDNVKHYKIRKLDNGGYYITTRAQFDTLQKLVKHYTEHADGLCHKLTTVCPTV
- Kd (Ac-pYEEIE-NH2): 3.8 µM
